# Measured values: IntAct's records for PubMed 11777938
# B1: Anaphase-promoting complex subunit 8 (Schizosaccharomyces pombe (strain ATCC 38366 / 972)), O94556 (parent)
# chain: MTVSLNTMMGVDGLEDQEQLREIRNCLLKCISECSERGLVYAVRWAAEMLNGMNPIEMEHIPFSSTPTGEFDLDPDMANEKLLEVEEKNIYLLAKSYFDCKEFERAAYTLQNCKSSKSIFLRLYSKYLAGEKKSEEENETLLNTNLTLSSTNREFYYISEVLESLHYQGNKDPYLLYLSGVVYRKRKQDSKAIDFLKSCVLKAPFFWSAWLELSLSIDSLETLTTVVSQLPSTHIMTKIFYVYASHELHQVNSSAYEKLAEAEIIFPNSRYLKTQRALLTYDSRDFDEAESLFENILTNDPYRLDDMDTYSNVLFVLENKSKLGFLAQVASSIDKFRPETCSIIGNYYSLLSEHEKAVTYFKRALQLNRNYLSAWTLMGHEYVELKNTHAAIESYRLAVDVNRKDYRAWYGLGQTYEVLDMHFYALYYFQRATALRPYDQRMWQALGNCYEKIDRPQEAIKSYKRALLGSQTNSSILVRLGNLYEELQDLNSAASMYKQCIKTEETEISPETIKARIWLARWELGKKNYREAELYLSEVLNGDLELEEAKALLRELRSRMEHSYD
# partner: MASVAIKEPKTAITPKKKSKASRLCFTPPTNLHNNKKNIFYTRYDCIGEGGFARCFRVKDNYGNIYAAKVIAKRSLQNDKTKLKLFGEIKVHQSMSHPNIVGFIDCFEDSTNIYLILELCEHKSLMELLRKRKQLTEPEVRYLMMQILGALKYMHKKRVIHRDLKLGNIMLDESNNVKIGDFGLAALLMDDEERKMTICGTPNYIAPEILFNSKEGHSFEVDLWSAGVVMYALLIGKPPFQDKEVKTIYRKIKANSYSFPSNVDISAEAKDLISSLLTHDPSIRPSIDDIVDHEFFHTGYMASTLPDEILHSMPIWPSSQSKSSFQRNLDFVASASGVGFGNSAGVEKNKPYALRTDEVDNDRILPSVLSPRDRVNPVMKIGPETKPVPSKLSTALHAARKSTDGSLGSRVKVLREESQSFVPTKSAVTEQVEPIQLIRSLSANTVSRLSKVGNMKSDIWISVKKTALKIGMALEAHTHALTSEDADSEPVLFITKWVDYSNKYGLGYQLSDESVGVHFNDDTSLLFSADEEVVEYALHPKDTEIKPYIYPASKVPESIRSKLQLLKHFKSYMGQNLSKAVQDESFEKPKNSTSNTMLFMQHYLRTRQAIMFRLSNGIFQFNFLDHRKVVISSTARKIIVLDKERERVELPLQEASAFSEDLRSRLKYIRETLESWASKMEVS
# Variants of: B1
# Details: with plo1_schpo plo1, P50528
row,effect of a mutation on the interaction,Variant
1,decreasing interaction,S349N
